Experimental data as given in the supplement of paper PMC7125110.
± gives the standard error. For some of these results: This sample holds only a part of the variants without activity.

B1: glmS ribozyme (parent)
chain: AUAAAAGCGCCAGAACUACAGAAAUGUAGUUGACGAGGAGGAGGUUUAUCGAAUUUUCGGCGGAUGCCUCCAAA

Tests used:
Conditions in all cases: with glucosamine-6-phosphate
[1] = variants of: B1; test: kcat; higher = faster cleavage; RNA array
In short: (§1)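 E. coli RNA polymerase transcribed barcoded ribozyme variants in situ on sequenced MiSeq chips, which were tracked via a hybridised Cy3 probe at 37 °C. Tiles were imaged over ~14 h after glucosamine-6-phosphate (40 μM to 10 mM) in HEPES/KCl/Mg(OAc)2 buffer was flowed in. Normalised per-tile medians were fit to one- or two-exponential decays for kobs, and kcat and KM came from weighted Michaelis–Menten fits.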

[2] = variants of: B1; test: self-cleavage kobs at 160 uM GlcN6P; higher = faster cleavage; RNA array
In short: as §1

[3] = variants of: B1; test: self-cleavage kobs at 640 uM GlcN6P; higher = faster cleavage; RNA array
In short: as §1

[4] = variants of: B1; test: self-cleavage kobs at 2500 uM GlcN6P; higher = faster cleavage; RNA array
In short: as §1

[5] = variants of: B1; test: self-cleavage kobs at 10000 uM GlcN6P; higher = faster cleavage; RNA array
In short: as §1

[6] = variants of: B1; test: KM; higher = weaker cofactor use; RNA array
In short: as §1

[7] = variants of: B1; test: self-cleavage kobs at 40 uM GlcN6P; higher = faster cleavage; RNA array
In short: as §1

Row | Variant | kcat [1] | self-cleavage kobs at 160 uM GlcN6P [2] | self-cleavage kobs at 640 uM GlcN6P [3] | self-cleavage kobs at 2500 uM GlcN6P [4] | self-cleavage kobs at 10000 uM GlcN6P [5] | KM [6] | self-cleavage kobs at 40 uM GlcN6P [7]
1 | G51U U69G | 4.26e-05 ± 1.5e-05 s⁻¹ | 5.17e-05 ± 1.2e-05 s⁻¹ | 5.57e-05 ± 1.3e-05 s⁻¹ | 7e-05 ± 1e-05 s⁻¹ | 1.72e-05 ± 8.1e-06 s⁻¹ |  | 
2 | G51U U69A | 5.12e-05 ± 2.4e-05 s⁻¹ |  | 7.72e-05 ± 1.7e-05 s⁻¹ |  |  |  | 
3 | U47G U56C A64G | 0.000113 ± 1.2e-05 s⁻¹ |  | 2.82e-05 ± 1.4e-05 s⁻¹ | 7.42e-05 ± 1.5e-05 s⁻¹ | 9.62e-05 ± 1.7e-05 s⁻¹ | 1500 ± 480 µM | 
4 | A48U U65G | 0.000116 ± 1e-05 s⁻¹ |  | 3.11e-05 ± 9.7e-06 s⁻¹ | 8.19e-05 ± 1e-05 s⁻¹ | 9.9e-05 ± 9.7e-06 s⁻¹ | 1390 ± 430 µM | < 1e-05 s⁻¹
5 | C50G G60C U69A | 8.12e-05 ± 2.6e-05 s⁻¹ | 0.00016 ± 4.5e-05 s⁻¹ | 0.00011 ± 2.1e-05 s⁻¹ | 0.000146 ± 3.1e-05 s⁻¹ | 4.94e-05 ± 1.4e-05 s⁻¹ |  | 
6 | C50A C67G | 2.95e-05 ± 1.1e-05 s⁻¹ |  |  | 4.73e-05 ± 9.8e-06 s⁻¹ |  |  | 1.98e-05 ± 9e-06 s⁻¹
7 | U49G C50G | < 1e-05 s⁻¹ |  | < 1e-05 s⁻¹ |  |  |  | 
8 | C50A U65G | 2.65e-05 ± 9.7e-06 s⁻¹ |  |  |  |  |  | 
9 | A48U G66A | 0.000466 ± 2.8e-05 s⁻¹ |  |  | 0.000123 ± 2.3e-05 s⁻¹ | 0.00027 ± 4.1e-05 s⁻¹ | 7160 ± 740 µM | 
10 | C50U A64G | 0.000283 ± 5e-05 s⁻¹ |  | 2.41e-05 ± 1e-05 s⁻¹ | 5.38e-05 ± 7.8e-06 s⁻¹ | 0.000141 ± 1.7e-05 s⁻¹ |  | 
11 | C50U A53U | 5.88e-05 ± 7.9e-06 s⁻¹ |  |  |  | 3.82e-05 ± 8.6e-06 s⁻¹ | 5390 ± 2000 µM | < 1e-05 s⁻¹
12 | C50U U69G C70U | 5.07e-05 ± 2.4e-05 s⁻¹ |  | 8.65e-05 ± 3.1e-05 s⁻¹ |  |  |  | 
13 | C50U C71U | 5.37e-05 ± 8.4e-06 s⁻¹ |  |  | 4.54e-05 ± 9.2e-06 s⁻¹ | 4.57e-05 ± 1e-05 s⁻¹ |  | 
14 | U47G C70A | 0.000101 ± 9.5e-06 s⁻¹ | 0.000107 ± 1.5e-05 s⁻¹ | 9.99e-05 ± 1.3e-05 s⁻¹ | 0.000111 ± 1.3e-05 s⁻¹ | 8.94e-05 ± 8.5e-06 s⁻¹ |  | 3.74e-05 ± 1.6e-05 s⁻¹
15 | U47C A53U | 0.00157 ± 0.00025 s⁻¹ | 0.000209 ± 4.6e-05 s⁻¹ | 0.000671 ± 0.00012 s⁻¹ | 0.0012 ± 0.00023 s⁻¹ | 0.00124 ± 0.00025 s⁻¹ | 1150 ± 280 µM | 4.38e-05 ± 9.7e-06 s⁻¹
16 | C50A C61G C68G | 3.41e-05 ± 1.4e-05 s⁻¹ |  | 6.76e-05 ± 1.9e-05 s⁻¹ |  | 2.92e-05 ± 1.3e-05 s⁻¹ |  | 
17 | C50G C58A G62C G63C C70A | 0.000121 ± 3.1e-05 s⁻¹ | 0.000204 ± 4.8e-05 s⁻¹ | 0.000166 ± 4.1e-05 s⁻¹ | 0.000239 ± 5.5e-05 s⁻¹ | 9.95e-05 ± 1.6e-05 s⁻¹ |  | 4.49e-05 ± 1.7e-05 s⁻¹
18 | U47A U65G U69C | 0.00209 ± 0.00057 s⁻¹ | 0.000128 ± 3.1e-05 s⁻¹ |  | 0.00114 ± 0.00024 s⁻¹ | 0.00154 ± 0.0005 s⁻¹ | 2700 ± 1100 µM | 
19 | U47C A64U | 0.000108 ± 8.5e-06 s⁻¹ |  | 7.89e-05 ± 1.8e-05 s⁻¹ | 9.46e-05 ± 2.2e-05 s⁻¹ | 0.000102 ± 1.2e-05 s⁻¹ | 363 ± 170 µM | 

Row | Variant | kcat [1] | self-cleavage kobs at 160 uM GlcN6P [2] | self-cleavage kobs at 640 uM GlcN6P [3] | self-cleavage kobs at 2500 uM GlcN6P [4] | self-cleavage kobs at 10000 uM GlcN6P [5] | KM [6] | self-cleavage kobs at 40 uM GlcN6P [7]
20 | U47C A64G | 0.00525 ± 0.0013 s⁻¹ | 0.000324 ± 9e-05 s⁻¹ | 0.00115 ± 0.00027 s⁻¹ | 0.0019 ± 0.00068 s⁻¹ | 0.00499 ± 0.00066 s⁻¹ | 1890 ± 650 µM | 0.000131 ± 1.7e-05 s⁻¹
21 | C50G A52G | 2.65e-05 ± 7.5e-06 s⁻¹ | 3.58e-05 ± 1.7e-05 s⁻¹ |  | 3.29e-05 ± 1.4e-05 s⁻¹ |  |  | 
22 | U47G C68G | 8.45e-05 ± 1.2e-05 s⁻¹ | 0.000166 ± 2.8e-05 s⁻¹ | 8.26e-05 ± 1e-05 s⁻¹ | 0.000104 ± 1.2e-05 s⁻¹ | 7.41e-05 ± 6.8e-06 s⁻¹ |  | 5.34e-05 ± 1e-05 s⁻¹
23 | C50G U54C | 5.48e-05 ± 1.1e-05 s⁻¹ | 5.92e-05 ± 2.5e-05 s⁻¹ |  | 5.87e-05 ± 1.8e-05 s⁻¹ |  |  | 
24 | G51A G62A | < 1e-05 s⁻¹ |  |  |  |  |  | < 1e-05 s⁻¹
25 | C50A A53C U57G C58G | 6.76e-05 ± 2.5e-05 s⁻¹ |  | 0.000112 ± 2.3e-05 s⁻¹ | 8.01e-05 ± 1.9e-05 s⁻¹ |  |  | 
26 | A48G C67G | 5.64e-05 ± 1.8e-05 s⁻¹ | < 1e-05 s⁻¹ | 3.36e-05 ± 1.6e-05 s⁻¹ | 7.99e-05 ± 1.9e-05 s⁻¹ | 4.41e-05 ± 1.4e-05 s⁻¹ |  | 
27 | A48U U56C | 6.46e-05 ± 1e-05 s⁻¹ | < 1e-05 s⁻¹ |  | 4.13e-05 ± 1.7e-05 s⁻¹ | 5.09e-05 ± 7.6e-06 s⁻¹ |  | 
28 | A48U U56G | 0.000239 ± 3.7e-06 s⁻¹ |  | 6.91e-05 ± 2e-05 s⁻¹ |  | 0.000206 ± 3.9e-05 s⁻¹ | 1590 ± 58 µM | 
29 | A52G G62A | 2.22e-05 ± 9.7e-06 s⁻¹ | < 1e-05 s⁻¹ |  |  | < 1e-05 s⁻¹ |  | 
30 | A48U C70G | 3.29e-05 ± 1e-05 s⁻¹ |  | 3.69e-05 ± 1.1e-05 s⁻¹ | 4.89e-05 ± 9.2e-06 s⁻¹ |  |  | 
31 | A48U C70A | 1.64e-05 ± 7.1e-06 s⁻¹ |  |  | 3.28e-05 ± 1.6e-05 s⁻¹ |  |  | 
32 | G51A A53C | < 1e-05 s⁻¹ |  | < 1e-05 s⁻¹ |  |  |  | 
33 | G51A A53G | 1.13e-05 ± 5.2e-06 s⁻¹ |  |  |  |  |  | 
34 | A52G C67A | 0.000584 ± 5.9e-05 s⁻¹ | 7.46e-05 ± 2e-05 s⁻¹ | 0.000199 ± 3.2e-05 s⁻¹ | 0.000301 ± 8.4e-05 s⁻¹ | 0.000533 ± 5.6e-05 s⁻¹ | 1300 ± 300 µM | 
35 | A52G C58A | 4.08e-05 ± 7.3e-06 s⁻¹ |  |  | 4.01e-05 ± 9.9e-06 s⁻¹ | 3.55e-05 ± 9.9e-06 s⁻¹ |  | 
36 | C50G C67U | 0.000113 ± 9.9e-06 s⁻¹ | 0.000129 ± 1.6e-05 s⁻¹ | 0.000141 ± 1.7e-05 s⁻¹ | 0.000126 ± 1.5e-05 s⁻¹ | 0.000101 ± 7.4e-06 s⁻¹ |  | 9.57e-05 ± 8e-06 s⁻¹
37 | C50A U54G U55C | 1.47e-05 ± 3.9e-06 s⁻¹ |  |  |  |  |  | 
